Data taken from publication PMC10755771.

Target: STAM1-His (signal-transducing adaptor molecule 1, wild type) (UniProt Q92783)

in vitro ubiquitination of STAM1 by AIP4 with βarr1 at 0-320 nM, 90 min at 37 °C; EC50 for βarr1 from the STAM1 immunoblots: 48.7 nM
in vitro ubiquitination of STAM1 by AIP4 with βarr1 at 0-320 nM, 90 min at 37 °C; EC50 for βarr1 from the ubiquitin immunoblots: 49.8 nM
Substance: βarrestin1 (untagged, wild type) (from UniProt P49407 1-418) (natural protein)
